The supplement of paper PMC12764529
± gives the half width of the 95% confidence interval.

Legend:
[1] = folding stability dG unfold (combined trypsin and chymotrypsin); higher = more stable
Method in brief: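 Unfolding free energy was derived, per protease or combined, against a sequence-predicted unfolded-state K50 and a shared folded-state K50, starting from K50 inferred by Bayesian fitting of sequencing counts. Digestion with trypsin and chymotrypsin was carried out on designed mini-proteins under 80 residues without cysteine in a PA-tagged cDNA display construct. Only designs with AlphaFold2 dimer inter-PAE above 15 were kept.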

[2] = folding stability dG unfold from trypsin proteolysis; higher = more stable
Experimental: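 Folding stability of de novo designed mini-proteins (<80 aa, no Cys; designed by TrROS, TrMRF, ProteinMPNN and the joint model) was measured by cDNA display proteolysis with trypsin and chymotrypsin. Each protease was used at 11 concentrations in a threefold dilution series plus a no-protease condition. K50 was inferred by Bayesian fitting of sequencing counts, and dG unfold was derived against a sequence-predicted unfolded-state K50 (Tsuboyama et al. method). Sequences shown include variable-length N-terminal GS-type padding (SAGGSAGG...) inside a display construct carrying a PA tag. Rows were kept only if the AF2 dimer inter-PAE was >15, to exclude likely homo-oligomers.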

Row | Sequence | folding stability dG unfold [1] | folding stability dG unfold [2]
1 | SAGGSAGGSAGPEIRVDDLEDGVVRITTVNVDPSTGAPVATTTTTLPRESLSPEVVALLSSAGGSAGGSAGG [r11_376_JUSTAS] | < -1 kcal/mol | 0.046 ± 0.038 kcal/mol
2 | SAGGSAGGSAGPEIVLEGKPVELEVVEVGDKPVLIARFPDHYVVIDPEPDVIRLFSSEELSAGGSAGGSAGG [r11_9_TrMRF] | -0.449 ± 0.11 kcal/mol | -0.0154 ± 0.018 kcal/mol
3 | SAGGSAGGSAGPKPIRIKVKWRNEKDGEKRKVTIPIPPGMPLEELIKNADPNQVRDVEIVSAGGSAGGSAGG [r11_386_TrROS] | < -1 kcal/mol | -0.276 ± 0.1 kcal/mol
4 | SAGGSAGGSAGQPKIGVLKEELIKETYTRPVPDSDETVKEERIVVKIIKKKLNIPENLLLSAGGSAGGSAGG [r17_530_JUSTAS] | < -1 kcal/mol | -0.447 ± 0.27 kcal/mol
5 | SAGGSAGGSAGREEVEEAIRAGETVTLEEKSPEGVIPVITVRAEFPDPDKVLVETEVKPLSAGGSAGGSAGG [r11_710_JUSTAS] | -0.646 ± 0.32 kcal/mol | 0.455 ± 0.083 kcal/mol
6 | SAGGSAGGSAGSLPEKLKEAFPDLGVTVTSVDPSGTVTVEVDGPEEVKEKVEKAVAEILKSAGGSAGGSAGG [r11_418_JUSTAS] | < -1 kcal/mol | -0.576 ± 0.33 kcal/mol
7 | SAGGSAGGSAGSPIPVEVKVTTFGPGGVPREAELLTGDPAAFEKAIGKPLPDGSKVEVLLSAGGSAGGSAGG [r11_671_JUSTAS] | -0.955 ± 0.48 kcal/mol | -0.129 ± 0.083 kcal/mol
8 | SAGGSAGGSAGSSLPPDARYTTKVTVKTPFSKTLSLSEYQKLPPSEIKGIEIEKEVVPVESAGGSAGGSAGG [r11_899_JUSTAS] | -0.927 ± 0.92 kcal/mol | -0.198 ± 0.44 kcal/mol
9 | SAGGSAGGSAGTTTKITEIKELPTDYVELTMKYPDGTTIKKLIPKSIYKDLPVSSTFSGGSAGGSAGGSAGG [r11_943_JUSTAS] | < -1 kcal/mol | -0.0564 ± 0.14 kcal/mol
10 | SAGGSAGGSAGVIEVPIEELENLPDDVKVVPTENTAVIYNEKNPIVVPKNEPVLIAPSDKSAGGSAGGSAGG [r17_91_TrMRF] | < -1 kcal/mol | 0.937 ± 0.051 kcal/mol
11 | SAGGSAGGSAKKIDVEVDEPVPNGYYRATIRVPGPGKPIEVNVPGPWEDAERKAKELAKELSAGGSAGGSAG [r3_104_TrROS] | < -1 kcal/mol | -0.964 ± 0.55 kcal/mol
12 | SAGGSAGGSAKKTAVIELIDPKDPKPKTITIPFDLKDGKTSLEELKKLVPDYTITSIAVFDDSAGGSAGGSA [r18_494_TrMRF] | < -1 kcal/mol | -0.182 ± 0.15 kcal/mol
13 | SAGGSAGGSAKPLTVDEILKNLDFPPNMEIEDIEVDQDENEGKPVISIEMYSPGQPYRPTIVSAGGSAGGSA [r18_354_TrROS] | < -1 kcal/mol | -0.151 ± 0.042 kcal/mol
14 | SAGGSAGGSALSPDDVEPIDEEPFHNPGGNPMNIGIWKNPDDGKPFIRNPGNGNPFPADDLSAGGSAGGSAG [r3_181_TrROS] | < -1 kcal/mol | -0.498 ± 0.12 kcal/mol
15 | SAGGSAGGSAMKEYVVASRGYDPATGLYSLTIESSEGKKVKNVTFDDPSNPEKAINEAIAKESAGGSAGGSA [r18_479_JUSTAS] | -0.829 ± 0.35 kcal/mol | -0.713 ± 0.34 kcal/mol
16 | SAGGSAGGSAMTIQINNLPPEKIEEAADDHGIDTQRNEESDSYYIEMPPNDMDEIKEALGWSAGGSAGGSAG [r3_354_TrROS] | 0.222 ± 0.17 kcal/mol | 0.725 ± 0.052 kcal/mol

Row | Sequence | folding stability dG unfold [1] | folding stability dG unfold [2]
17 | SAGGSAGGSAPIVRLEFGPVIPLPDMSPDELKEKTAELVPEEYREKIKIVSVLDPDNPKEISAGGSAGGSAG [r3_340_TrMRF] | < -1 kcal/mol | -0.269 ± 0.12 kcal/mol
18 | SAGGSAGGSAPKPKIEPVNNTITIDIPPKENVQIFFPNGKQEEFPVEPGKEIKIPPGMYLYPSAGGSAGGSA [r18_452_TrROS] | < -1 kcal/mol | -0.356 ± 0.055 kcal/mol
19 | SAGGSAGGSASAPADETLTAELTSPESDERYTVLVTPEGMTAVDEAGRTTPLSPAVLVSVTAPSAGGSAGGS [r20_35_JUSTAS] | 0.0934 ± 0.075 kcal/mol | 0.862 ± 0.034 kcal/mol
20 | SAGGSAGGSASIEVEAEPAEIEKVAEEAPEDEEVLVRDPKTGRVYLVKPDEVVLLREVPALLSAGGSAGGSA [r18_246_JUSTAS] | -0.821 ± 0.48 kcal/mol | -0.238 ± 0.086 kcal/mol
21 | SAGGSAGGSASKYVKVTVRLTPPDGTTRTVEITDPNKTVEEIIASLPSDEPVEVTEVEELPPSAGGSAGGSA [r18_32_JUSTAS] | -0.806 ± 0.49 kcal/mol | 0.197 ± 0.18 kcal/mol
22 | SAGGSAGGSASMTITLPGMSLEEAKAAAEAHPDHPVLLETPEGRLIEITPEGVVTVRPLPESAGGSAGGSAG [r3_269_JUSTAS] | -0.937 ± 0.17 kcal/mol | -0.147 ± 0.029 kcal/mol
23 | SAGGSAGGSATIKIKVPPGEPYMIRIRWPDGKSHEHNVPPGEEITIPPDNFDGITPIEIQPYSAGGSAGGSA [r18_210_TrROS] | 0.11 ± 0.56 kcal/mol | 0.288 ± 0.19 kcal/mol
24 | SAGGSAGGSENNIVIKMKMEMPNQEMKFRFPIPADKLKDALKEGKPIKFPNGMNVRITEIIPVSAGGSAGGS [r12_432_TrROS] | < -1 kcal/mol | -0.864 ± 0.81 kcal/mol
25 | SAGGSAGGSGMISKTEVERLPDGTVIERKEYPEGGLTTLKIYKVPPDGVPTLVEEKLVPEKLISAGGSAGGS [r12_695_JUSTAS] | -0.69 ± 0.24 kcal/mol | -0.612 ± 0.17 kcal/mol
26 | SAGGSAGGSGNPDTPTSPVFVVIEKTTTVVPAPNGLYPKRTSVKISIPGGAAAGAEELIAELLSAGGSAGGS [r12_933_JUSTAS] | < -1 kcal/mol | -0.2 ± 0.13 kcal/mol
27 | SAGGSAGGSKKVVTYESVTLTVLVERTLPDPEGNPVTTTRVVEEPVRVTKVDFDTKVETYVVGSAGGSAGGS [r20_58_JUSTAS] | -0.623 ± 0.33 kcal/mol | -0.0343 ± 0.14 kcal/mol
28 | SAGGSAGGSMKPEVVEEIIKKAEEEGYEIDSVTVNPETNVPVIHFNWPSPELAEKDPELREAASAGGSAGGS [r12_482_TrMRF] | < -1 kcal/mol | 0.13 ± 0.12 kcal/mol
29 | SAGGSAGGSMPPEELRKKILEDPNVEVLSIEPPGPEVTLITTKYPRETETPTTETVTEKLPVPLSAGGSAGG [r6_154_JUSTAS] | -0.568 ± 0.33 kcal/mol | -0.392 ± 0.33 kcal/mol
30 | SAGGSAGGSMVYVVKVEIPETGEEYEFLNPEDKETVEREVRELFPDPEVKAEIEEIEVEPELLSAGGSAGGS [r12_92_TrMRF] | < -1 kcal/mol | -0.175 ± 0.15 kcal/mol
31 | SAGGSAGGSREIKIDDFERHNGYYYITVEIKDPNNGKKRPLEIPYPPNQPNADRFAKDIADELSAGGSAGGS [r12_415_TrROS] | < -1 kcal/mol | -0.751 ± 0.43 kcal/mol
32 | SAGGSAGGSSMPLTVEELLASVGPDKTATVLVPPGTSIPANITPLGTEPEGGWRTFAIPASLVSAGGSAGGS [r12_356_JUSTAS] | -0.971 ± 0.25 kcal/mol | -0.137 ± 0.12 kcal/mol
